Assay results: patent US20110288036A1 (published 2011)
Where no end group is shown, it is not given here.

What was measured:
Experiment in all cases: cell-based or functional assay
[1] = target: JNK (c-Jun N-terminal Kinase)
[2] = target: T1, MKK4 (Mitogen-Activated Protein Kinase Kinase 4) (UniProt P45985 1-399)
T1 sequence: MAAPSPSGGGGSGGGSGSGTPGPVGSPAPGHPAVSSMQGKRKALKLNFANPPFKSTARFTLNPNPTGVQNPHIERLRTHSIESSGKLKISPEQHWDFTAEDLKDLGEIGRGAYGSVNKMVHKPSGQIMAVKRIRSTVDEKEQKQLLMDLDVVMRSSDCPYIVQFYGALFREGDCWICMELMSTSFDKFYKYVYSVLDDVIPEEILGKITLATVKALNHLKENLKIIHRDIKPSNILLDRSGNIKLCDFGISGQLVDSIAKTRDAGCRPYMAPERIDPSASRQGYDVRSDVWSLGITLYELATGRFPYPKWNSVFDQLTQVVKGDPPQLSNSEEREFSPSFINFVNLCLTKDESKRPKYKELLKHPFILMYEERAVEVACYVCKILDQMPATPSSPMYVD

[3] = target: T2, MKK6 (Mitogen-Activated Protein Kinase Kinase) (UniProt P52564 1-334)
T2 sequence: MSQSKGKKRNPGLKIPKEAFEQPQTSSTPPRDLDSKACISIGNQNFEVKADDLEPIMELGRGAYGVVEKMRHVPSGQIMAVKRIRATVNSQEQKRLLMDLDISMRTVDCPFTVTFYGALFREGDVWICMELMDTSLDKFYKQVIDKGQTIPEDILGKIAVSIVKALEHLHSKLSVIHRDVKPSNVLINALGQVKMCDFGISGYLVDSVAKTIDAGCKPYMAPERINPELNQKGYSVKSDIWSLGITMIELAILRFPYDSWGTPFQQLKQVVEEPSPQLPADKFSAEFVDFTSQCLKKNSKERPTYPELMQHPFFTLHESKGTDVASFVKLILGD

[4] = target: MEK1 (UniProt Q02750 1-393)
[5] = target: T3, PRAK (p38-Regulated/Activated Protein Kinase) (UniProt Q8IW41 1-473)
T3 sequence: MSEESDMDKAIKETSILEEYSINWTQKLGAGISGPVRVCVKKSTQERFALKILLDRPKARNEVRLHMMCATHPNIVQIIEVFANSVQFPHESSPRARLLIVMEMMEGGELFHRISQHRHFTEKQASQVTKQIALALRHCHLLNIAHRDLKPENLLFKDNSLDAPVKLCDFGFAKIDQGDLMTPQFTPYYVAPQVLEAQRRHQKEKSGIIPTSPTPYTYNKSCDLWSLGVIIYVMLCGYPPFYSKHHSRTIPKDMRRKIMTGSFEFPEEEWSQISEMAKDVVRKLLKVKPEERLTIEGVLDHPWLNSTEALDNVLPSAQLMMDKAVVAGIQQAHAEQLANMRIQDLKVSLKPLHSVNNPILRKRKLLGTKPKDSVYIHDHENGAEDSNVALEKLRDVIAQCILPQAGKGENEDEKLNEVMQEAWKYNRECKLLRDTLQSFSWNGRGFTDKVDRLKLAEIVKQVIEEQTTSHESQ

[6] = target: p38 MAPK (p38 Mitogen-Activated Protein Kinase)

## YARAAARQARAKALARQLGVAA (not fully specified (C-terminus)) [MMI-0100 (YARAAARQARAKALARQLGVAA; SEQ ID NO: 1)]
[1]
  Percent Activity (radiometric kinase assay, 100 µM peptide): 92 percent activity
[2]
  Percent Activity (radiometric kinase assay, 100 µM peptide): 90 percent activity
[3]
  Percent Activity (radiometric kinase assay, 100 µM peptide): 50 percent activity
[4]
  Percent Activity (radiometric kinase assay, 100 µM peptide): 68 percent activity
[5]
  Percent Activity (radiometric kinase assay, 100 µM peptide): 100 percent activity
[6]
  Percent Activity (radiometric kinase assay, 100 µM peptide): 60 percent activity
